Blank lines part the entries; values can stand above or below the binder they belong to.
Legend:
[1] = biological target: T1, peptide 1 (synthetic peptide corresponding to the epitope for mAb 01D10) (human); experiment: peptide preincubation, then immunoblot
T1 peptide: PSLVYRPDVDPEV
Description: (§1) FIG. 4A and FIG. 4B depict images of immunoblots showing confirmation of specific antibody epitopes by blocking mAb binding to endogenous MIOX. (FIG. 4A) The peptides corresponding to the epitopes for mAb 01D10 (peptide 1) and mAb 12H06 (peptide 2) were synthesized. mAb 01D10 was pre-incubated for one hour with buffer alone, 100 μg/ml peptide 1, or 100 μg/ml peptide 2. (FIG. 4B) Western inhibition of mAb 12H06 using either peptide 1 or peptide 2.
(§2) The linear epitopes of the anti-MIOX antibodies were determined by use of spot-peptide membrane arrays containing the full length amino acid sequence of MIOX. The two mouse monoclonal antibodies mapped to opposite ends of the MIOX sequence (FIG. 3B). The antibody designated 01D10 mapped to the N-terminal sequence of MIOX (FIG. 3C). The peptide spots were decoded to reveal the sequence P9-V21. The mouse monoclonal antibody designated 12H06 mapped to the C-terminal region of MIOX (FIG. 3C). The peptide spots were decoded to reveal the epitope sequence R268-C279. […] The peptide epitope recognized by the 12H06 mouse monoclonal antibody was 100% identical to the corresponding mouse and rat Miox peptide sequence. The peptide epitope recognized by the 01D10 mouse monoclonal antibody was 92% identical to the corresponding mouse and rat Miox peptide sequence. […]

[2] = biological target: T2, rat myo-inositol oxygenase (Miox) (rat, UniProt Q9QXN4 1-285); experiment: Western blot of rat kidney homogenate
T2 construct: also called rat Miox; rat MIOX
T2 sequence (looked up): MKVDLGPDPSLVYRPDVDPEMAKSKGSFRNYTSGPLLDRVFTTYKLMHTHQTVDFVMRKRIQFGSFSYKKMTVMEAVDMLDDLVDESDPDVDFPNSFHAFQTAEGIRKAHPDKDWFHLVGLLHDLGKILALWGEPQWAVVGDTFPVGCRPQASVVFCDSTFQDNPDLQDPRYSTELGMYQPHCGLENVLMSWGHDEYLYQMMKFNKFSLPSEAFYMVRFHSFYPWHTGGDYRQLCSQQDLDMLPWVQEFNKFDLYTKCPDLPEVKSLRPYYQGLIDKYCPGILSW
Description: (§3) The cross-species immunoreactivity of the anti-MIOX monoclonal antibodies was investigated (FIG. 3D,E). Human, mouse, and rat kidney homogenates were separately probed with both monoclonal anti-MIOX antibodies.
(§4) Normal human kidney homogenate was purchased from G-Biosciences (NLH-04, G-Biosciences). Mouse and rat kidney homogenate was purchased from G-Biosciences, St. Louis, Mo. Western blotting was performed as previously described (Laterza O F, et al. Clin Chem 2006; 52:1713-1721). Blots were probed with 0.004 mg/mL of the rabbit polyclonal anti-MIOX antibody R9544 or 0.004 mg/mL of either the 01D10 or 12H06 mouse anti-MIOX monoclonal antibody. Where indicated, both monoclonal antibodies were used simultaneously, each at the above concentrations.

[3] = biological target: T3, mouse myo-inositol oxygenase (Miox) (mouse, UniProt Q9QXN5 1-285); experiment: Western blot of mouse kidney homogenate
T3 construct: also called mouse Miox; mouse MIOX
T3 sequence (looked up): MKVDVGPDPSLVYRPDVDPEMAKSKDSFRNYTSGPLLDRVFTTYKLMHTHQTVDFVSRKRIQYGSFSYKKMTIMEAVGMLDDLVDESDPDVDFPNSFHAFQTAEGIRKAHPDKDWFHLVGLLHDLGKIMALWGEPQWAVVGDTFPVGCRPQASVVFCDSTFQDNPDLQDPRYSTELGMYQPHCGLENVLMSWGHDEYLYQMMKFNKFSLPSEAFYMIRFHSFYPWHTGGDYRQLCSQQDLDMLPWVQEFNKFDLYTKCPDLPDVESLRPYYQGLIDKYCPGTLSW
Description: as §3, §4

[4] = biological target: T4, peptide 2 (synthetic peptide corresponding to the epitope for mAb 12H06) (human); experiment: peptide preincubation (one hour), then immunoblot
T4 peptide: RPYYQGLIDKYC
Description: as §1, §2

binding result [1]: no binding (tested: 100 µg/ml) | binding result [2]: binds | binding result [3]: binds
B1: mouse monoclonal anti-MIOX antibody 12H06 (antibody, IgG2b, V domains shown)
VH: QVQLQQPGAELVRPGTSVKLSCKASGYTFTSYWMHWVKQRPGQGLEWIGLIDPSDSYTNYNQKFKGKATLTVDTSSSTASMQLSSLTSEDSAVYYCVRTYYHSSYFFAYWGQGTLVTVSS
VL: DIVVTQSPASFAVSLGQRATISCRASKSVSTSGYSYINWYQQKPGQPPKLLIYLASNLESGVPARFSGSGSGTDFTLNIHPVEEEDAATYYCQHSRELPLTFGAGTRLELK
notes: the VH entry runs a few residues into CH1; also called mAb 12H06

binding result [4]: no binding (tested: 100 µg/ml)
B2: mouse monoclonal anti-MIOX antibody 01D10 (antibody, IgG2b, V domains shown)
VH: QVQLQQSGPELVKPGASVKISCKASGYSFTSYYIHWVKQRPGQGLEWIGWIYPGSGNSKYNEKFKGKATLTADTSSSTAYMQLSSLTSEDSAVYYCARDGSTYNWNFDVWGTGTTVTVSS
VL: DIQMTQSPASLSASVGETVTITCRTSGNIHNYLAWYQQKQGKSPQLLVYNAKTLADGVPSRFSGSGSGTQYSLKINSLQPEDFGSYYCQHFWSIPFTFGSGTKLEIKR
notes: they run a few residues into the constant regions; Biotinylated when used as capping antibody in the sandwich immunoassay; also called mAb 01D10
